From patent US20140328762A1, “Fluorogenic Peptide Probes and Assays” (priority 2011, published 2014)

Columns and labels:
[1] = molecular target: T1, E3 peptide; test: fluorescence titration of 10 nM beacon with E3 peptide, curve fitting
T1 chain: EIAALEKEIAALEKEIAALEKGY

[2] = molecular target: T1, E3 peptide; test: Kd of the beacon (fluorescence) compared with Kd of unlabeled K3-b1b3 (CD), both for E3
[3] = molecular target: FosLZ (MBP-FosLZ, fusion protein of MBP and the cFos leucine zipper) [MBP: P0AEX9]; test: fluorescence at 580 nm, 100 nM beacon, 10 µM partner (FIG. 14A, column C)
[4] = molecular target: T1, E3 peptide; test: fluorescence titration of 1 µM beacon with E3 peptide, curve fitting
[5] = molecular target: unlabeled GCN4 244 (yeast); test: fluorescence at 580 nm, 100 nM beacon, 10 µM partner (FIG. 14A, column D)
[6] = molecular target: unlabeled JunLZ-Lb1b4 [MBP: P0AEX9]; test: fluorescence at 580 nm, 100 nM beacon, 10 µM partner (FIG. 14A, column B)
[7] = molecular target: T1, E3 peptide; test: fluorescence at 580 nm, 100 nM beacon, 10 µM partner (FIG. 14A, column E)
[8] = molecular target: T1, E3 peptide; test: fluorescence titration of 1 µM beacon with E3 peptide
[9] = molecular target: T2, full length human XRCC4 protein (recombinant, E. coli) (human), Q13426; test: fluorescence of 2 µM beacon with increasing concentration of XRCC4 (FIG. 8)
T2 sequence (Q13426 whole entry, the tested form may be a part): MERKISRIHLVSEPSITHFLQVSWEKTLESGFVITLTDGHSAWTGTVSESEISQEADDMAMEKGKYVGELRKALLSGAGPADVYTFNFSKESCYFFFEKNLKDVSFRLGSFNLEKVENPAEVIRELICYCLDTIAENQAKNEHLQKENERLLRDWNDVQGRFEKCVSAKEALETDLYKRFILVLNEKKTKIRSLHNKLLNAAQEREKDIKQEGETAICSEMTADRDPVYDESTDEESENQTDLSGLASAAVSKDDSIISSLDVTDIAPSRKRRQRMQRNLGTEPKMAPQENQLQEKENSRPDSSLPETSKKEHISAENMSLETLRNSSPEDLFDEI

[10] = molecular target: truncated XRCC4 protein that does not have DNA ligase IV binding site (recombinant, E. coli) (human), Q13426; test: absorbance spectra, 1 µM beacon, 40 µM protein; beacon only 0.40 (FIG. 7)
truncated XRCC4 protein that does not have DNA ligase IV binding site (recombinant, E. coli) (human), Q13426, sequence (Q13426 2-150 limits assumed): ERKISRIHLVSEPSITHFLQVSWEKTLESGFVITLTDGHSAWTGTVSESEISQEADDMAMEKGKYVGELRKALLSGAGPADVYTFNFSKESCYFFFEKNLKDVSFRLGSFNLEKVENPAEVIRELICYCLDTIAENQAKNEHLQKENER

[11] = molecular target: T2, full length human XRCC4 protein …; test: as above
[12] = molecular target: T1, E3 peptide; test: CD spectra analysis, curve fitting (data not shown)

Work on KICALKAKIAALKAKICALKAGY (modifications not checked) [K3-b1b3 beacon] yielded a Kd [1] of 738 nM, a fold decrease of binding affinity against unlabeled K3-b1b3 [2] of 17 fold and a fluorescence enhancement over beacon only [3] of 1.6 fold. The Kd [4] was 766 nM, the fluorescence enhancement over beacon only [5] was 1.2 fold and the fluorescence enhancement over beacon only [6] was 1.5 fold. It also gave a fluorescence enhancement over beacon only [7] of 7 fold and a maximum fluorescence enhancement [8] of 12 fold.

CREYDSYGDSYFIDTDLNQLKEVFSGIKCG (modifications not checked) [LigIV-C1 peptide beacon] was tested, and the fluorescence enhancement [9] was 9.5 fold, the A550/A520 ratio [10] was 0.38 and the A550/A520 ratio [11] was 0.46.

Work on KICALKAKIAALKAKICALKAGY (modifications not checked) [K3-b1b3 peptide (unlabeled)] yielded a Kd [12] of 45 nM.
